Laboratory results reported in article PMC10844294.

Molecular target: B.1.1.529 (BA.1) S1 + S2 trimer-His Recombinant Protein (SARS-CoV-2) (UniProt P0DTC2)
Assay: cryo-EM structure

Work on “B.1.1.529 (BA.1) S1 + S2 trimer-His Recombinant Protein (from UniProt P0DTC2 324-533) (natural protein)” yielded a stoichiometry N of 3.
